Test results taken from IntAct's records for PubMed 21505419.

B1: Suppressor protein STP22 of temperature-sensitive alpha-factor receptor and arginine permease (Saccharomyces cerevisiae), P25604 (parent)
chain: MSANGKISVPEAVVNWLFKVIQPIYNDGRTTFHDSLALLDNFHSLRPRTRVFTHSDGTPQLLLSIYGTISTGEDGSSPHSIPVIMWVPSMYPVKPPFISINLENFDMNTISSSLPIQEYIDSNGWIALPILHCWDPAAMNLIMVVQELMSLLHEPPQDQAPSLPPKPNTQLQQEQNTPPLPPKPKSPHLKPPLPPPPPPQPASNALDLMDMDNTDISPTNHHEMLQNLQTVVNELYREDVDYVADKILTRQTVMQESIARFHEIIAIDKNHLRAVEQAIEQTMHSLNAQIDVLTANRAKVQQFSSTSHVDDEDVNSIAVAKTDGLNQLYNLVAQDYALTDTIECLSRMLHRGTIPLDTFVKQGRELARQQFLVRWHIQRITSPLS
partner: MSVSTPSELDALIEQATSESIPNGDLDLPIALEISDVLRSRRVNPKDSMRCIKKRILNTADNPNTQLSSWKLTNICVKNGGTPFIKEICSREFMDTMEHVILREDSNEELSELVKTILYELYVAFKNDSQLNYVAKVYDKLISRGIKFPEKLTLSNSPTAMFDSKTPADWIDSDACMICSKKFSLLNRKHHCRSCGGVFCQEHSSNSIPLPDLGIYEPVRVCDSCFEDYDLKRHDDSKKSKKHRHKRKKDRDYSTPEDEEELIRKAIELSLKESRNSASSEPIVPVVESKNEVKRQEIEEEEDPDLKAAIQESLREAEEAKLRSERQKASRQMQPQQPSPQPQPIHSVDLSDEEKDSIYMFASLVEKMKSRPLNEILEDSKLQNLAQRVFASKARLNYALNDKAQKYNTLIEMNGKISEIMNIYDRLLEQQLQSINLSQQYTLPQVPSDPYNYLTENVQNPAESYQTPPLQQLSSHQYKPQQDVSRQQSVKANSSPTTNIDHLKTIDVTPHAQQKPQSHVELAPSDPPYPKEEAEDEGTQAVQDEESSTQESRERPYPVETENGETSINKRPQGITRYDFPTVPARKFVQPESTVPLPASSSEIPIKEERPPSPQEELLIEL

Variants of: B1
Conditions: with vps27_yeast VPS27, P40343

effect of a mutation on the interaction | Variant
decreasing interaction | MSANGKISVPEAVVNWLFKVIQPIYNDGRTTFHDSLALLDNFHSLRPRVRVFTHSDGTPQLLLSIYGTISTGEDGSSPHSIPVIMWVPSMYPVKPPFISINLENFDMNTISSSLPIQEYIDSNGWIALPILHCWDPAAMNLIMVVQELMSLLHEPPQDQAPSLPPKPNTQLQQEQNTPPLPPKPKSPHLKPPLPPPPPPQPASNALDLMDMDNTDISPTNHHEMLQNLQTVVNELYREDVDYVADKILTRQTVMQESIARFHEIIAIDKNHLRAVEQAIEQTMHSLNAQIDVLTANRAKVQQFSSTSHVDDEDVNSIAVAKTDGLNQLYNLVAQDYALTDTIECLSRMLHRGTIPLDTFVKQGRELARQQFLVRWHIQRITSPLS [T49V]

Variants of: B1
Conditions: with vps27_yeast VPS27, P40343
Remark: another data set of the same source

effect of a mutation on the interaction | Variant
disrupting interaction | MSANGKISVPEAVVNALFKVIQPIYNDGRTTFHDSLALLDNFHSLRPRTRVFTHSDGTPQLLLSIYGTISTGEDGSSPHSIPVIMWVPSMYPVKPPFISINLENFDMNTISSSLPIQEYIDSNGWIALPILHCWDPAAMNLIMVVQELMSLLHEPPQDQAPSLPPKPNTQLQQEQNTPPLPPKPKSPHLKPPLPPPPPPQPASNALDLMDMDNTDISPTNHHEMLQNLQTVVNELYREDVDYVADKILTRQTVMQESIARFHEIIAIDKNHLRAVEQAIEQTMHSLNAQIDVLTANRAKVQQFSSTSHVDDEDVNSIAVAKTDGLNQLYNLVAQDYALTDTIECLSRMLHRGTIPLDTFVKQGRELARQQFLVRWHIQRITSPLS [W16A]

Variants of: B1
Conditions: with vps27_yeast VPS27, P40343
Remark: another data set of the same source

effect of a mutation on the interaction | Variant
decreasing interaction | MSANGKISVPEAVVNWLFKVIQPIYNDGRTTFHDSLALLDNFHSLRPRTRVFTHSDGTPQNLLSIYGTISTGEDGSSPHSIPVIMWVPSMYPVKPPFISINLENFDMNTISSSLPIQEYIDSNGWIALPILHCWDPAAMNLIMVVQELMSLLHEPPQDQAPSLPPKPNTQLQQEQNTPPLPPKPKSPHLKPPLPPPPPPQPASNALDLMDMDNTDISPTNHHEMLQNLQTVVNELYREDVDYVADKILTRQTVMQESIARFHEIIAIDKNHLRAVEQAIEQTMHSLNAQIDVLTANRAKVQQFSSTSHVDDEDVNSIAVAKTDGLNQLYNLVAQDYALTDTIECLSRMLHRGTIPLDTFVKQGRELARQQFLVRWHIQRITSPLS [L61N]
